This passage reports reverse-splicing fitness results from the RNAGym collection of RNA variant scans (doi:10.1093/molbev/msab373).

Sequences and labels used below:
B1: Azoarcus group I ribozyme (parent)
chain: GUGCCUUGCGCCGGGAAACCACGCAAGGGAUGGUGUCAAAUUCGGCGAAACCUAAGCGCCCGCCCGGGCGUAUGGCAACGCCGAGCCAAGCUUCGGCGCCUGCGCCGAUGAAGGUGUAGAGACUAGACGGCACCCACCUAAGGCAAACGCUAUGGUGAAGGCAUAGUCCAGGGAGUGGCGAAAGUCACACAAACCGG

The variants in this series derive from B1. Description: reverse-splicing fitness (ratio to wild type); higher = more active; in vitro selection; Mg2+ level not given. The method in brief:
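An in vitro group I ribozyme library with randomized positions was T7-transcribed and gel-purified. In triplicate, 10 pmol RNA in EPPS pH 7.5 was reacted with 50 pmoles of a 30-nt RNA substrate for 1 h at 37 °C across several added MgCl2 levels (1–48 mM), then stopped with EDTA. Products were reverse transcribed from a substrate-complementary primer, PCR-amplified and sequenced (HiSeq 4000). Fitness is a variant's read proportion after selection over that before, normalised to wild type.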
With GUGCCUUGCGCCGGGAAACCACGCAAGGGAUGGUGUCAAAUUCGGCGAAACCUAAGCGCCCGCCCGGGCGUAUGGCAACGCAGAGCCAAGCUUCGGCGCCUGCGCCGAUGAAGGUGUAGAGACUAGACGGCACCCACCUAAGGCCAACGGUAUGGUGAAGGCAUAGUCAAGGGAGGGGCGAAAGUCACACAAACCGG [C82A A145C C150G C169A U176G], the reverse-splicing fitness stood at 0.00669.
As to GUGCCUUGCGCCGGGAAACCACGCAAGGGAUGGUGUCAAAUUCGGCGAAACCUAAGCGCCCGCCCGGGCGUAUGGCAACGCAGAGCCAAGCUUCGGCGCCUGCGCCGAUGAAGGUGUAGAGACUAGACGGCACCCACCUAAGGCCAACGGUAUGGUGAAGGCAUAGUCAAGGGAGAGGCGAAAGUCACACAAACCGG [C82A A145C C150G C169A U176A], the reverse-splicing fitness came to 0.00836.
With GUGCCUUGCGCCGGGAAACCACGCAAGGGAUGGUGUCAAAUUCGGCGAAACCUAAGCGCCCGCCCGGGCGUAUGGCAACGCAGAGCCAAGCUUCGGCGCCUGCGCCGAUGAAGGUGUAGAGACUAGACGGCACCCACCUAAGGCCAACGGUAUGGUGAAGGCAUAGUCAAGGGAGCGGCGAAAGUCACACAAACCGG [C82A A145C C150G C169A U176C] the figure was 0.00619; with GUGCCUUGCGCCGGGAAACCACGCAAGGGAUGGUGUCAAAUUCGGCGAAACCUAAGCGCCCGCCCGGGCGUAUGGCAACGCAGAGCCAAGCUUCGGCGCCUGCGCCGAUGAAGGUGUAGAGACUAGACGGCACCCACCUAAGGCCAACGAUAUGGUGAAGGCAUAGUCCAGGGAGGGGCGAAAGUCACACAAACCGG [C82A A145C C150A U176G], 0.0123.
For the variant GUGCCUUGCGCCGGGAAACCACGCAAGGGAUGGUGUCAAAUUCGGCGAAACCUAAGCGCCCGCCCGGGCGUAUGGCAACGCAGAGCCAAGCUUCGGCGCCUGCGCCGAUGAAGGUGUAGAGACUAGACGGCACCCACCUAAGGCCAACGAUAUGGUGAAGGCAUAGUCCAGGGAGCGGCGAAAGUCACACAAACCGG [C82A A145C C150A U176C], the reverse-splicing fitness amounted to 0.0306.
On to GUGCCUUGCGCCGGGAAACCACGCAAGGGAUGGUGUCAAAUUCGGCGAAACCUAAGCGCCCGCCCGGGCGUAUGGCAACGCAGAGCCAAGCUUCGGCGCCUGCGCCGAUGAAGGUGUAGAGACUAGACGGCACCCACCUAAGGCCAACGAUAUGGUGAAGGCAUAGUCCAGGGAGAGGCGAAAGUCACACAAACCGG [C82A A145C C150A U176A], for which the reverse-splicing fitness came to 0.0316.
As to GUGCCUUGCGCCGGGAAACCACGCAAGGGAUGGUGUCAAAUUCGGCGAAACCUAAGCGCCCGCCCGGGCGUAUGGCAACGCAGAGCCAAGCUUCGGCGCCUGCGCCGAUGAAGGUGUAGAGACUAGACGGCACCCACCUAAGGCCAACGGUAUGGUGAAGGCAUAGUCCAGGGAGUGGCGAAAGUCACACAAACCGG [C82A A145C C150G], the reverse-splicing fitness came out at 0.0739.
GUGCCUUGCGCCGGGAAACCACGCAAGGGAUGGUGUCAAAUUCGGCGAAACCUAAGCGCCCGCCCGGGCGUAUGGCAACGCAGAGCCAAGCUUCGGCGCCUGCGCCGAUGAAGGUGUAGAGACUAGACGGCACCCACCUAAGGCCAACGAUAUGGUGAAGGCAUAGUCUAGGGAGGGGCGAAAGUCACACAAACCGG [C82A A145C C150A C169U U176G]: the reverse-splicing fitness stood at 0.00553.
Turning to GUGCCUUGCGCCGGGAAACCACGCAAGGGAUGGUGUCAAAUUCGGCGAAACCUAAGCGCCCGCCCGGGCGUAUGGCAACGCAGAGCCAAGCUUCGGCGCCUGCGCCGAUGAAGGUGUAGAGACUAGACGGCACCCACCUAAGGCCAACGAUAUGGUGAAGGCAUAGUCUAGGGAGAGGCGAAAGUCACACAAACCGG [C82A A145C C150A C169U U176A], the reverse-splicing fitness came out at 0.015.
On to GUGCCUUGCGCCGGGAAACCACGCAAGGGAUGGUGUCAAAUUCGGCGAAACCUAAGCGCCCGCCCGGGCGUAUGGCAACGCAGAGCCAAGCUUCGGCGCCUGCGCCGAUGAAGGUGUAGAGACUAGACGGCACCCACCUAAGGCCAACGAUAUGGUGAAGGCAUAGUCUAGGGAGCGGCGAAAGUCACACAAACCGG [C82A A145C C150A C169U U176C], for which the reverse-splicing fitness amounted to 0.00759.
As to GUGCCUUGCGCCGGGAAACCACGCAAGGGAUGGUGUCAAAUUCGGCGAAACCUAAGCGCCCGCCCGGGCGUAUGGCAACGCAGAGCCAAGCUUCGGCGCCUGCGCCGAUGAAGGUGUAGAGACUAGACGGCACCCACCUAAGGCCAACGGUAUGGUGAAGGCAUAGUCAAGGGAGUGGCGAAAGUCACACAAACCGG [C82A A145C C150G C169A], the reverse-splicing fitness was found to be 0.00909.
Take GUGCCUUGCGCCGGGAAACCACGCAAGGGAUGGUGUCAAAUUCGGCGAAACCUAAGCGCCCGCCCGGGCGUAUGGCAACGCAGAGCCAAGCUUCGGCGCCUGCGCCGAUGAAGGUGUAGAGACUAGACGGCACCCACCUAAGGCCAACGGUAUGGUGAAGGCAUAGUCGAGGGAGUGGCGAAAGUCACACAAACCGG [C82A A145C C150G C169G]: the reverse-splicing fitness stood at 0.00828.
For GUGCCUUGCGCCGGGAAACCACGCAAGGGAUGGUGUCAAAUUCGGCGAAACCUAAGCGCCCGCCCGGGCGUAUGGCAACGCAGAGCCAAGCUUCGGCGCCUGCGCCGAUGAAGGUGUAGAGACUAGACGGCACCCACCUAAGGCCAACGGUAUGGUGAAGGCAUAGUCGAGGGAGAGGCGAAAGUCACACAAACCGG [C82A A145C C150G C169G U176A], the reverse-splicing fitness turned out to be 0.00895.
Take GUGCCUUGCGCCGGGAAACCACGCAAGGGAUGGUGUCAAAUUCGGCGAAACCUAAGCGCCCGCCCGGGCGUAUGGCAACGCAGAGCCAAGCUUCGGCGCCUGCGCCGAUGAAGGUGUAGAGACUAGACGGCACCCACCUAAGGCCAACGGUAUGGUGAAGGCAUAGUCGAGGGAGCGGCGAAAGUCACACAAACCGG [C82A A145C C150G C169G U176C]: the reverse-splicing fitness was 0.0067.
For GUGCCUUGCGCCGGGAAACCACGCAAGGGAUGGUGUCAAAUUCGGCGAAACCUAAGCGCCCGCCCGGGCGUAUGGCAACGCAGAGCCAAGCUUCGGCGCCUGCGCCGAUGAAGGUGUAGAGACUAGACGGCACCCACCUAAGGCCAACGGUAUGGUGAAGGCAUAGUCGAGGGAGGGGCGAAAGUCACACAAACCGG [C82A A145C C150G C169G U176G], the reverse-splicing fitness worked out at 0.00508.
